# According to US20030133907A1:
# Target: T1, IFNG receptors on HeLa cells (UniProt P15260)
# T1 sequence (looked up): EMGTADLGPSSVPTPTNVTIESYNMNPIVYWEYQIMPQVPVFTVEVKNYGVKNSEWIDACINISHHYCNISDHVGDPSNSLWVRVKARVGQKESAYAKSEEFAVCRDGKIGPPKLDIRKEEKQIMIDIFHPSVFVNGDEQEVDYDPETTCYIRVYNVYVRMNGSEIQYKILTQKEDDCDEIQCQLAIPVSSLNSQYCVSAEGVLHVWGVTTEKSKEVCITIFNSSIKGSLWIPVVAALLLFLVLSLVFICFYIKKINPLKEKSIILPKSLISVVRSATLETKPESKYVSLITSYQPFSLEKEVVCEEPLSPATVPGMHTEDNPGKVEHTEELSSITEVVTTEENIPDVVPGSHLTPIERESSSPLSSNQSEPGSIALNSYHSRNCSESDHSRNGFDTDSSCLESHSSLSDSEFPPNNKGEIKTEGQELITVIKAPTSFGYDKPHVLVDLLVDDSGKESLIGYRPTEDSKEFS
# Experiment: cell-based or functional assay
"% activity of full-length wt (specific activity), Primary Assay [%]","Specific activity (AU/mg), Primary Assay (ISRE-luciferase in HeLa cells), after purification [AU/mg]","specific activity relative to the corresponding non-PEGylated IFNG variant, Primary Assay [%]","% activity of full-length wt (AU/ml basis), Primary Assay [%]","Activity (AU/ml), Primary Assay (ISRE-luciferase in HeLa cells), after transient transfection [AU/ml]","Activity relative to non-PEGylated product subjected to “PEGylation procedure” (%), Primary Assay [%]",Substance
11,2.4e+06,15,,,,N59C + S99T (full-length + 5 kDa mPEG) (from UniProt P01579 24-161) (ligand)
30,6.3e+06,,,,,N59C + S99T (full-length) (from UniProt P01579 24-161) (ligand)
6,1.3e+06,15,,,,N16C + S99T (full-length + 10 kDa mPEG) (from UniProt P01579 24-161) (ligand)
,,,86,1.2e+07,,E38N + K61T (full-length) (from UniProt P01579 24-161) (ligand)
,,,29,4e+06,,E38N + S40T + S99T (truncated after Leu135) (from UniProt P01579 24-158) (ligand)
,,,71,9.9e+06,,E38N + S40T (full-length) (from UniProt P01579 24-161) (ligand)
,,,25,3.5e+06,,S99T (truncated after Leu135) (from UniProt P01579 24-158) (ligand)
18,3.8e+06,,18,2.5e+06,,N10C + S99T (full-length) (from UniProt P01579 24-161) (ligand)
105,2.2e+07,,36,5.1e+06,,S99T (full-length) (from UniProt P01579 24-161) (ligand)
,,,,,42,S99T + N104C (full-length + 5 kDa mPEG) (from UniProt P01579 24-161) (ligand)
,,,79,1.1e+07,,E38N + S40T + N59C + S99T (full-length) (from UniProt P01579 24-161) (ligand)
,,,,,59,N16C + S99T (full-length + 5 kDa mPEG) (from UniProt P01579 24-161) (ligand)
,,,7,940000,,E38N + S40T + K94C + S99T (full-length) (from UniProt P01579 24-161) (ligand)

# Further lines, the substance ahead of its results:
Substance,"% activity of full-length wt (specific activity), Primary Assay [%]","Specific activity (AU/mg), Primary Assay (ISRE-luciferase in HeLa cells), after purification [AU/mg]","specific activity relative to the corresponding non-PEGylated IFNG variant, Primary Assay [%]","% activity of full-length wt (AU/ml basis), Primary Assay [%]","Activity (AU/ml), Primary Assay (ISRE-luciferase in HeLa cells), after transient transfection [AU/ml]","Activity relative to non-PEGylated product subjected to “PEGylation procedure” (%), Primary Assay [%]"
E38N + S40T + S99T + N104C (full-length) (from UniProt P01579 24-161) (ligand),,,,16,2.3e+06,
Wild-type (full-length) rhuIFNG (from UniProt P01579 24-161) (ligand),,2.1e+07,,,1.4e+07,
N10C + E38N + S40T + S99T (full-length) (from UniProt P01579 24-161) (ligand),,,,11,1.5e+06,
E38N + K61T + S99T (full-length) (from UniProt P01579 24-161) (ligand),,,,10,1.4e+06,
Wild-type (truncated after Leu135) (from UniProt P01579 24-158) (ligand),,,,45,6.3e+06,
N16C + S99T (full-length) (from UniProt P01579 24-161) (ligand),11,2.3e+06,,79,1.1e+07,
N16C + E38N + S40T + S99T (full-length) (from UniProt P01579 24-161) (ligand),,,,26,3.7e+06,
E38N (full-length) (from UniProt P01579 24-161) (ligand),,,,100,1.4e+07,
S99T + N104C (full-length) (from UniProt P01579 24-161) (ligand),17,3.5e+06,,36,5e+06,
E38C + S99T (full-length) (from UniProt P01579 24-161) (ligand),16,3.4e+06,,71,1e+07,
E38N + S40T + N83C + S99T (full-length) (from UniProt P01579 24-161) (ligand),,,,5,720000,
N10C + S99T (full-length + 5 kDa mPEG) (from UniProt P01579 24-161) (ligand),,,,,,23
E38N + S40T + S99T (full-length) (from UniProt P01579 24-161) (ligand),67,1.4e+07,,93,1.3e+07,
E38C + S99T (full-length + 10 kDa mPEG) (from UniProt P01579 24-161) (ligand),,,,,,41
